Source: patent US7517661B2, “Methods of screening for ligands for FPRL2” (Takeda Pharmaceutical Company Limited, priority 2003, dated 2009)
Changes are numbered by the printed parent chain. Where no end group is shown, it is not given here.

Experiments:
human FPRL2 [1] = target: T1, human FPRL2 (Homo sapiens, UniProt P25089); experiment: Intracellular cAMP production inhibition assay (AlphaScreen) in human FPRL2-expressing CHO cells; type: cell-based; details: human FPRL2-expressing CHO cells; reactivity also examined for human FPRL1, human FPR1 and mock CHO (FIGS. 1-4)
T1 construct: expressed in transfected cells; host or cells: CHO cells
T1 sequence (P25089 1-353 G94A/S211T/D338H): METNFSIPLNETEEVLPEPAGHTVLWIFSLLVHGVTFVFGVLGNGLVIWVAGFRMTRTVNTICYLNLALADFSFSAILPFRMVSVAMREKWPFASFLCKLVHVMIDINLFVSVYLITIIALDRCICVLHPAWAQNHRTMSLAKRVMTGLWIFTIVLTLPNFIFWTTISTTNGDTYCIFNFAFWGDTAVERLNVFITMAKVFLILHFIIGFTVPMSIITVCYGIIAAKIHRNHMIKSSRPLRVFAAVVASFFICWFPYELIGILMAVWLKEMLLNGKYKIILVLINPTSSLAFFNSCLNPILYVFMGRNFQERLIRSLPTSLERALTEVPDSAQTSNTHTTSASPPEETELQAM
Experimental: (§1) Orphan G protein-coupled receptor protein-expressing CHO cells were inoculated in one flask of 150 cm^2 at 1×10^7 cells, followed by incubation at 37° C. in a CO2 incubator. Subsequently to the incubation, the cells were detached using 0.5 mM EDTA/PBS, and washed with PBS. The cells were then suspended at a density of 1×10^7 cells/ml in Buffer 1 (HBSS+0.1% BSA, 25 mM HEPES, pH 7.3, 0.5 mM IBMX). This cell suspension, 440 μl, was mixed with 22 μl of anti-cAMP acceptor beads of AlphaScreen cAMP Assay Kit (Perkin Elmer) and 638 μl of Buffer 1. The resulting mixture was dispensed on a white 96-well plate (Costar) by 10 μl each. Next, 10 μl each of a Buffer 1 dilution or solution of the compound to be screened was added to each well. In this case, the cell suspension was not given in one row of the plate but only a mixture of 9 μl of anti-cAMP acceptor beads and 441 μl of Buffer 1 was charged and instead of the compound, a serial dilution of cAMP was added thereto. This was made standard. The plate in which a mixture of the cell suspension and the compound was charged was kept shaken at room temperature for 30 minutes. Thirty minutes after, a mixture of 20 μl of Biotinyl camp and 82 μl of Streptavin donor beads of AlphaScreen cAMP Assay kit with 40 ml of Buffer 2 (HBSS+0.1% BSA, 25 mM HEPES, pH 7.3, 1.5% Tween 20) was added to all wells of the plate by 30 μl each. The plate was kept shaken at room temperature for 3 hours and the fluorescence intensity was measured by Fusion a (Perkin Elmer). Using the cAMP standard charged in the plate, the cAMP level in each well was calculated. In addition to human FPRL2-expressing CHO cells, three orphan G protein-coupled receptor protein-expressed CHO cells were added and the resulting compound library was provided for screening using the assay system described above.

human FPRL2 [2] = target: T2, human FPRL2 (Homo sapiens, UniProt P25089, D338H/G94A/S211T); experiment: as above; type: cell-based; details: summary statement in disclosure of invention
T2 construct: expressed in transfected cells; host or cells: CHO cells
T2 sequence (P25089 1-353 G94A/S211T/D338H): T1 sequence (P25089 1-353 G94A/S211T/D338H)
Experimental: as §1

FPRL2 = target: T3, FPRL2 (Homo sapiens, UniProt P25089); details: J Biol. Chem., Jun. 15, 2001; 276 (24): 21585-93; cited from earlier work
T3 sequence (P25089 1-353): T1 sequence (P25089 1-353 G94A/S211T/D338H) with A94G, T211S, H338D

Row | Substance | ligand activity on FPRL2 (human FPRL2 [2]) | intracellular cAMP production inhibition activity (human FPRL2 [1]) | agonist for FPRL2 (reported) (FPRL2)
1 | His-Trp-Ala-Trp-Phe-Lys-NH2 (HWAWFK-NH2; not fully specified (residues 2, 5); printed as His-Trp-Ala-Trp-Phe-Lys-NH2) [GHRP-6] | exhibit a ligand activity on FPRL2 | exhibited the intracellular cAMP production inhibition activity specific to human FPRL2 | –
2 | Trp-Lys-Tyr-Met-Val-Met-NH2 | – | – | agonist for FPRL2
3 | Ala-Arg-Pro-Gly-Tyr-Leu-Ala-Phe-Pro-Arg-Met-NH2 (ARPGYLAFPRM-NH2; listed as Aplysia sp.) [SCPA] | exhibit a ligand activity on FPRL2 | exhibited the intracellular cAMP production inhibition activity specific to human FPRL2 | –

More lines, main results first:

Row | ligand activity on FPRL2 (human FPRL2 [2]) | Substance | intracellular cAMP production inhibition activity (human FPRL2 [1]) | agonist for FPRL2 (reported) (FPRL2)
4 | exhibit a ligand activity on FPRL2 | Met-Pro-His-Ser-Phe-Ala-Asn-Leu-Pro-Leu-Arg-Phe-NH2 (MPHSFANLPLRF-NH2; listed as Sus scrofa) [hRFRP-1-12] | exhibited the intracellular cAMP production inhibition activity specific to human FPRL2 | –
5 | exhibit a ligand activity on FPRL2 | Gly-Asn-His-Trp-Ala-Val-Gly-His-Leu-Met-NH2 (GNHWAVGHLM-NH2; listed as Homo sapiens) [hNeuromedin C] | exhibited the intracellular cAMP production inhibition activity specific to human FPRL2 | –
